Reference: patent publication US20220332804A1 (CSL INNOVATION, published 2022)
Substitutions are numbered along the chain they refer to.

Key:
Assay in all cases: SPR, KD relative to WT C2;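 also: biacore SPR at 37 °C, anti-C2 mAbs captured via immobilised goat anti-human IgG, C2 alanine or serine surface mutants as analytes, 1:1 model fitted, double-referenced sensograms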
human C2 R719A = biological target: T1, human C2 R719A (human, UniProt P06681 21-752)
T1 sequence: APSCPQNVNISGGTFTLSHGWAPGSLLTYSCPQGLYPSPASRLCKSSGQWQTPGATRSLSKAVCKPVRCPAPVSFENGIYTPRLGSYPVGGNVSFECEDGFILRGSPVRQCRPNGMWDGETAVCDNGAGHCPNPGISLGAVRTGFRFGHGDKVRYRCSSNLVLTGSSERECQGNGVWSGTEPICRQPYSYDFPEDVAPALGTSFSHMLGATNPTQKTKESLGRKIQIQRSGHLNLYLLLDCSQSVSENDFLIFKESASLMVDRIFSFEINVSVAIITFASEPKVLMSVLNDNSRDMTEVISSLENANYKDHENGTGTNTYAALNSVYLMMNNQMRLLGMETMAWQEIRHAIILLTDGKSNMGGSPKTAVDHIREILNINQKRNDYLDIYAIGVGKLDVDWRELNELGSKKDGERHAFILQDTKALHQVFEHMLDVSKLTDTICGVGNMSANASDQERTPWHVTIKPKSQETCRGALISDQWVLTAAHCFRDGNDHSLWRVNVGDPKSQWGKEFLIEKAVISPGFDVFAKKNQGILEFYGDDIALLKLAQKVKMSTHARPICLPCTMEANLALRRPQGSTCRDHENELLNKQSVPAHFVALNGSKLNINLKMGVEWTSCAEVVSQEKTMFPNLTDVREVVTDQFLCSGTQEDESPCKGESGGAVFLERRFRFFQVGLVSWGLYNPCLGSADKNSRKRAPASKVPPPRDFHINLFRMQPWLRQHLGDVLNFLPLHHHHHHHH
Experimental: (§1) Surface plasmon resonance (SPR, Biacore) was used for all binding affinity analyses. In brief, goat anti-human IgG was directly immobilised onto the carboxymethyl dextran surface of CM5 sensorchips to approximately 12,000 RU using standard NHS/EDC chemistry at pH 5. The immobilised antibody surface was pre-conditioned with ten injections of polyclonal human IgG (Privigen 60 s) prepared at 1 μg/mL. Ligands (anti-C2 mAbs) were captured at the beginning of each cycle as described below. An adjacent spot or flow cell in which only Polyclonal IgG was capture was used as a reference surface. The goat anti-human IgG Fc antibody surface was regenerate in 100 mM H3PO4, injected for 45 seconds at the end of each cycle. Experiments were performed at 37° C. and the flow rate of each experiment was kept constant at 30 μL/min.
(§2) Sensogram data was double-referenced against a reference anti-IgG surface (i.e. minus anti-C2 mAb) and blank buffer injections obtained within each experiment. The binding data was fit to 1:1 (kinetic or steady-state) model using local Rmax and null refraction index (RI=0) when appropriate. Buffers and solutions were filtered (0.22 μm) prior to use.

human C2 K430A = biological target: T2, human C2 K430A (human, UniProt P06681 21-752)
T2 sequence: T1 sequence with K410A, A699R
Experimental: as §1, §2

human C2 R434A = biological target: T3, human C2 R434A (human, UniProt P06681 21-752)
T3 sequence: T1 sequence with R414A, A699R
Experimental: as §1, §2

human C2 M648A = biological target: T4, human C2 M648A (human, UniProt P06681 21-752)
T4 sequence: T1 sequence with M628A, A699R
Experimental: as §1, §2

B1: RF16-226 (antibody, human IgG4 S228P, lambda)
heavy: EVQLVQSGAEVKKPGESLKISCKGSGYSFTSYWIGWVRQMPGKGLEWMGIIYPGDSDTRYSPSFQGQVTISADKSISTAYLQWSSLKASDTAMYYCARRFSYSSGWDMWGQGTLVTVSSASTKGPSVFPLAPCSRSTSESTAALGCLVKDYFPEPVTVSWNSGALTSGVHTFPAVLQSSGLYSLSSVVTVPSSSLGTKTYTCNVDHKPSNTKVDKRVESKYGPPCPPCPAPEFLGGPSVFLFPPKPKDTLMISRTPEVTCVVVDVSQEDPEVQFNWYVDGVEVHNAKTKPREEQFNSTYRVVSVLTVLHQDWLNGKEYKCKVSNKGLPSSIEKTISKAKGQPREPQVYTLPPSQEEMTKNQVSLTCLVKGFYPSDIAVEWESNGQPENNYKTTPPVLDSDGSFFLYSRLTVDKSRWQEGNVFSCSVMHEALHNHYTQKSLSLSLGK
light: SYELTQPPSVSVSPGQTARITCSGDALTSKYVAWYQQKSGLAPLLVIYEDTRRPSGIPAKFSGSSSGSVATLTISGAHGDDEADYYCYSTDASGHQRVFGGGTKLTVLSQPKAAPSVTLFPPSSEELQANKATLVCLISDFYPGAVTVAWKADGSPVKAGVETTKPSKQSNNKYAASSYLSLTPEQWKSHRSYSCQVTHEGSTVEKTVAPTECS
notes: pH-dependent anti-C2 antibody from a phage display library; also called WT
- Fold diff (human C2 R719A): 1 fold
- Fold diff (human C2 K430A): 6 fold
- Fold diff (human C2 R434A): 14 fold
- Fold diff (human C2 M648A): 20 fold
